Assay results reported in patent US20210236649A1 (ICONIC THERAPEUTICS, published 2021).

B1: Lipidated rabbit tissue factor (receptor, UniProt P24055 33-292, looked up)
chain: ADTTGRAYNLTWKSTNFKTILEWEPKSIDHVYTVQISTRLENWKSKCFLTAETECDLTDEVVKDVGQTYMARVLSYPARNGNTTGFPEEPPFRNSPEFTPYLDTNLGQPTIQSFEQVGTKLNVTVQDARTLVRRNGTFLSLRAVFGKDLNYTLYYWRASSTGKKTATTNTNEFLIDVDKGENYCFSVQAVIPSRKRKQRSPESLTECTSREQGRAREMFFIIGAVVVVALLIIVLSVTVYKCRKARAGPSGKESSPLNIA
notes: Amine-coupled as a proteoliposome to flow cell 2 of the Biacore chip; Also used to start thrombin generation in rabbit plasma; also called rTF; rabbit TF
B2: Human Factor VIIa (human plasma FVIIa) (enzyme, UniProt P08709 61-466, looked up)
chain: ANAFLEELRPGSLERECKEEQCSFEEAREIFKDAERTKLFWISYSDGDQCASSPCQNGGSCKDQLQSYICFCLPAFEGRNCETHKDDQLICVNENGGCEQYCSDHTGTKRSCRCHEGYSLLADGVSCTPTVEYPCGKIPILEKRNASKPQGRIVGGKVCPKGECPWQVLLLVNGAQLCGGTLINTIWVVSAAHCFDKIKNWRNLIAVLGEHDLSEHDGDEQSRRVAQVIIPSTYVPGTTNHDIALLRLHQPVVLTDHVVPLCLPERTFSERTLAFVRFSLVSGWGQLLDRGATALELMVLNVPRLMTQDCLQQSRKVGDSPNITEYMFCAGYSDGSKDSCKGDSGGPHATHYRGTWYLTGIVSWGQGCATVGHFGVYTRVSQYIEWLQKLMRSEPRPGVLLRAPFP
notes: also called hFVIIa; Human FVIIa

Tests used:
[1] = biological target: B2; experiment: SPR (Biacore 3000), lipidated rabbit TF on chip
Protocol: (§1) The GE procedure for proteoliposome immobilization (amine coupling) protocol was used to coat PS/PC/rTF on flow cell 2, and PS/PC/hTF on flow cell 3. Flow cells were equilibrated with running buffer (15 mM Hepes, 150 mM NaCl, 5 mM CaCl2, 25 mM Arginine, 0.01% Tween 80, pH7.4) at a flow rate of 5 μL/min. Kinetic analyses were performed at 37° C. by flowing consecutively increasing concentrations of each analyte […] in the running buffer (15 mM. HEPES, 150 mM NaCl, 5 mM CaCl2, 25 mM Arginine, 0.01% Tween 80, pH 7.4) over the sensor chip for 5 min followed by a 10 min dissociation period at a flow rate of 30 μL/min in parallel.
(§2) Analyte binding to the lipidated TF was determined by subtracting the RU values noted in the reference flow cell 1 from flow cell 2 and 3. Binding of analytes to the TFs was monitored in real time to obtain on (ka) and off (kd) rates. The equilibrium dissociation constant (KD) was calculated from the observed ka and kd.
(§3) Based on the saturation concentration of the analyte, binding analysis was performed using saturating analyte concentrations of 0-500 nM for rabbit TF and 0-50 nM for human TF. Chi squared (χ²) analysis was carried out between the actual sensorgram and the calculated on- and off-rates to determine the accuracy of the analysis.

[2] = biological target: B2; experiment: SPR (Biacore 3000), lipidated rabbit TF amine-coupled, analyte 0-500 nM, 37 C
Protocol: as §1, §2, §3

[3] = biological target: B1; experiment: SPR (Biacore)
Protocol: as §1, §2

Binder: B1
- Kd [1]: 39.5 nM
- Ka [2]: 2.5e+07 M⁻¹
- Kd [2]: 40 nM
- koff [2]: 0.0014 s⁻¹
- kon [2]: 34000 M⁻¹ s⁻¹

Binder: B2
- fold lower affinity than to lipidated hTF [3]: ~10 fold
